# Experimental data published in patent US20200224203A1.
# B1: recombinant active caspase-6 (protein)
# chain: AFYKREMFDPAEKYKMDHRRRGIALIFNHERFFWHLTLPERRGTCADRDNLTRRFSDLGFEVKCFNDLKAEELLLKIHEVSTVSHADADCFVCVFLSHGEGNHIYAYDAKIEIQTLTGLFKGDKCHSLVGKPKIFIIQACRGNQHDVPVIPLDVVDNQTEKLDTNITEVDAASVYTLPAGADFLMCYSVAEGYYSHRETVNGSWYIQDLCEMLGKYGSSLEFTELLTLVNRKVSQRRVDFCKDPSAIGKKQVPCFASMLTKKLHFFPKSN
# Experiments:
# [1] = target: huntingtin (htt) protein, full length, from human fibroblasts, P42858
# [2] = target: modified htt protein after partial exon 12 skipping (human) (UniProt P42858); assay: cell-based or functional assay
# Sequence of huntingtin (htt) protein, full length, from human fibroblasts, P42858 (P42858 whole entry): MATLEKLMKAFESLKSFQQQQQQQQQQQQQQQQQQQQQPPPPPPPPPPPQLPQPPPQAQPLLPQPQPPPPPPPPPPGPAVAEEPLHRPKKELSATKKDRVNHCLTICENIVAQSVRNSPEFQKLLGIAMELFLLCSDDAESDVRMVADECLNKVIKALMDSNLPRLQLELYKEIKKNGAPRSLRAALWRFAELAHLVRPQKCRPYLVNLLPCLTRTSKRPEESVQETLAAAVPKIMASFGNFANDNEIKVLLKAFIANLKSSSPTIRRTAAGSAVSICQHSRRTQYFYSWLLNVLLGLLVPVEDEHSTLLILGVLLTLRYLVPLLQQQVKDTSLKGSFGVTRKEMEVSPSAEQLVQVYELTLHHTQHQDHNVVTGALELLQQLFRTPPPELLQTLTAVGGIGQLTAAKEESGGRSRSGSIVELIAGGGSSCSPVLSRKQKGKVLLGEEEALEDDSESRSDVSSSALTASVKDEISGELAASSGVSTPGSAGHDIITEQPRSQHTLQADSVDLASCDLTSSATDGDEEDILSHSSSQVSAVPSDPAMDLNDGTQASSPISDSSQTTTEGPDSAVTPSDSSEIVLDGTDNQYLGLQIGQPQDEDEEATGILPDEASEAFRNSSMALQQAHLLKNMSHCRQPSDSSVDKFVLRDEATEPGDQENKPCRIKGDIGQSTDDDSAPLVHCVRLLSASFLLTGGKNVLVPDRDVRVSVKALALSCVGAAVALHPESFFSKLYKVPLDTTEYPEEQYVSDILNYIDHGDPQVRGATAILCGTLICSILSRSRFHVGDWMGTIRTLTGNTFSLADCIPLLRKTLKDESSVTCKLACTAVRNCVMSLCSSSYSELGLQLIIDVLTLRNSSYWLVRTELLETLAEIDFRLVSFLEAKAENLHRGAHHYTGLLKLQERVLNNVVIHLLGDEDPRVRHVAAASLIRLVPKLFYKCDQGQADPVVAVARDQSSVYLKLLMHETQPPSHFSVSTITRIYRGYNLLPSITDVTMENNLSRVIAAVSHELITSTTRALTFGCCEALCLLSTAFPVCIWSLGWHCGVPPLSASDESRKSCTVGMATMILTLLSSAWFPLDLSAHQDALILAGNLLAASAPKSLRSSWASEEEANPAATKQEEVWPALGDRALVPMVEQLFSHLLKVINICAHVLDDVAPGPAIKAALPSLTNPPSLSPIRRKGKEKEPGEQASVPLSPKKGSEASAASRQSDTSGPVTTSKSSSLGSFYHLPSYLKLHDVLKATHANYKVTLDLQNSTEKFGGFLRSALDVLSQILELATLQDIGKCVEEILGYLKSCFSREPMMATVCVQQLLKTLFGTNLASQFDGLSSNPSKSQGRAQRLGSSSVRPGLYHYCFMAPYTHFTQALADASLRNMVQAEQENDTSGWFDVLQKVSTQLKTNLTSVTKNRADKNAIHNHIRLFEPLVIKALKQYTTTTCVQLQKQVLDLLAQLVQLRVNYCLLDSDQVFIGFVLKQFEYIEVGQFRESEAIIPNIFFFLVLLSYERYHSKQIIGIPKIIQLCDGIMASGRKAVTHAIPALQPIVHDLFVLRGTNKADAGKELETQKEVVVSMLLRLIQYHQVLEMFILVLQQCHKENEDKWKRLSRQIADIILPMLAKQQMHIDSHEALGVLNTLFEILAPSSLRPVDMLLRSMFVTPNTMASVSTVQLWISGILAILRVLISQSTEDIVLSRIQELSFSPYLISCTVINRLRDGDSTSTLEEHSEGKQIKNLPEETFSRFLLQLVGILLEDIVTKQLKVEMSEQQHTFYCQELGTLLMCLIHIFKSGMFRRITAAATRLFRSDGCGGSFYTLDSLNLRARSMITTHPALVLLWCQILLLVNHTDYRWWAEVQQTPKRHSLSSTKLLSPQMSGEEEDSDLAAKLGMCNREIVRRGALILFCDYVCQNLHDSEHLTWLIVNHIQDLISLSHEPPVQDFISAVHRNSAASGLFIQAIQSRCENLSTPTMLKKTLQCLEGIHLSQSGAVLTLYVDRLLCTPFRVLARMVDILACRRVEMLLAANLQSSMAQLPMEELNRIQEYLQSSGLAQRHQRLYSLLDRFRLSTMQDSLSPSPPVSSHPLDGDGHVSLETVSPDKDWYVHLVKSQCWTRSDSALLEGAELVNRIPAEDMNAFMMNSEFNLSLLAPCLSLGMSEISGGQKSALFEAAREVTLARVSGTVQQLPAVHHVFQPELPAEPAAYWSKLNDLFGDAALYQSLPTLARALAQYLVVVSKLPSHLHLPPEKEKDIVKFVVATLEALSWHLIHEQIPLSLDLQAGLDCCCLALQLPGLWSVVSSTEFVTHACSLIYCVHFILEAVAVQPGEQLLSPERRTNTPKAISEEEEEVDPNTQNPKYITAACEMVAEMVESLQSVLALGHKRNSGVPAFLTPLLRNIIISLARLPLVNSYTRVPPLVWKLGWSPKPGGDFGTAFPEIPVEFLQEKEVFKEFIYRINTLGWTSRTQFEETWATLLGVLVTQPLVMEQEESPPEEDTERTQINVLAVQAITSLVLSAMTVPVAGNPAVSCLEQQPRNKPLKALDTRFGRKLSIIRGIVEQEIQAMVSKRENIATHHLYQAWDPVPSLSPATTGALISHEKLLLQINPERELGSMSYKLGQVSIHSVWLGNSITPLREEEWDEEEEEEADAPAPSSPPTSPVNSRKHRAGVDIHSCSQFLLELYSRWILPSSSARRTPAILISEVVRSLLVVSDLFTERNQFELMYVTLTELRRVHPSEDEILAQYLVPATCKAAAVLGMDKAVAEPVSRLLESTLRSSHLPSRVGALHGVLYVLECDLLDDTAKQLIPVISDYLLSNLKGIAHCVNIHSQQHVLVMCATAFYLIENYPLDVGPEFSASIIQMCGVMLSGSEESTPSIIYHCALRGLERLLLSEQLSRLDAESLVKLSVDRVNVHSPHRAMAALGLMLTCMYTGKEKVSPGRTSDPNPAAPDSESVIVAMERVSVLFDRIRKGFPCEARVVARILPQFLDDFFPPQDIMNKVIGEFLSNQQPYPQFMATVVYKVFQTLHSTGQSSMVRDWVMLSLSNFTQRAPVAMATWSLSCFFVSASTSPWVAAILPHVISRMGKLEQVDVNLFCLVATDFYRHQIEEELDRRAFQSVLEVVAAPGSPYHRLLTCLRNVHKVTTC
binder,measurement,setting,value
B1,N-terminal htt fragments detected by Western blot (4C8 antibody) in an in vitro caspase-6 cleavage assay,[1],"After samples were incubated with recombinant active caspase-6, N-terminal htt fragments of 98 kDa were detected"
same,reduction of 98 kDa N-terminal htt fragments in an in vitro caspase-6 cleavage assay (samples from cells treated with hHTTEx12 7),[2],31.9%
